Data as given in the supplement of paper PMC7125110.
± gives the standard error. Variants at the floor of the assay were thinned out.

B1: glmS ribozyme (parent)
chain: AUAAAAGCGCCAGAACUACAGAAAUGUAGUUGACGAGGAGGAGGUUUAUCGAAUUUUCGGCGGAUGCCUCCAAA

Assays:
Settings in all cases: with glucosamine-6-phosphate
glucosamine-6-phosphate [1] = variants of: B1; assay: self-cleavage kobs at 40 uM GlcN6P; higher = faster cleavage; RNA array
Procedure, shortened: (§1)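 E. coli RNA polymerase transcribed barcoded ribozyme variants in situ on sequenced MiSeq chips, which were tracked via a hybridised Cy3 probe at 37 °C. Tiles were imaged over ~14 h after glucosamine-6-phosphate (40 μM to 10 mM) in HEPES/KCl/Mg(OAc)2 buffer was flowed in. Normalised per-tile medians were fit to one- or two-exponential decays for kobs, and kcat and KM came from weighted Michaelis–Menten fits.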

glucosamine-6-phosphate [2] = variants of: B1; assay: self-cleavage kobs at 160 uM GlcN6P; higher = faster cleavage; RNA array
Procedure, shortened: as §1

glucosamine-6-phosphate [3] = variants of: B1; assay: self-cleavage kobs at 640 uM GlcN6P; higher = faster cleavage; RNA array
Procedure, shortened: as §1

glucosamine-6-phosphate [4] = variants of: B1; assay: self-cleavage kobs at 2500 uM GlcN6P; higher = faster cleavage; RNA array
Procedure, shortened: as §1

glucosamine-6-phosphate [5] = variants of: B1; assay: self-cleavage kobs at 10000 uM GlcN6P; higher = faster cleavage; RNA array
Procedure, shortened: as §1

| Variant | self-cleavage kobs at 40 uM GlcN6P (glucosamine-6-phosphate [1]) [s⁻¹] | self-cleavage kobs at 160 uM GlcN6P (glucosamine-6-phosphate [2]) [s⁻¹] | self-cleavage kobs at 640 uM GlcN6P (glucosamine-6-phosphate [3]) [s⁻¹] | self-cleavage kobs at 2500 uM GlcN6P (glucosamine-6-phosphate [4]) [s⁻¹] | self-cleavage kobs at 10000 uM GlcN6P (glucosamine-6-phosphate [5]) [s⁻¹] |
| --- | --- | --- | --- | --- | --- |
| AUAAAAGCGCCAUAACUACAGAAAUGUAGUUGACGAGGAGUAGGUGUAUCGAAUUUUCGGCGGAUGCCUCCAAA [G13U G41U U46G] | < 1e-05 | – | – | – | – |
| AUAAAAGCGCCAUAACUACAGAAAUGUAGUCGACGAGGAGGAGGUUUAUGGAAUUUUCGGCGUAUGCCUCCAAA [G13U U31C C50G G63U] | < 1e-05 | – | – | – | – |
| AUAAAAGCGCCAGGGCUACAGAAAUGUAGUUGACGAGGAGGAGGUUUAUCGAAUUUUCGGCGGAUGCCUCCAAA [A14G A15G] | 0.00218 ± 0.00029 | 0.0049 ± 0.0015 | 0.0134 ± 0.0029 | 0.0102 ± 0.0027 | 0.109 ± 0.035 |
| AUAAAAGCGCCAGCACUACAGAAAUGUAGUUGACGAGGAGGAGGUUUAUCGAAUUUUCGGCGGCUACCUCCAAA [A14C A64C G66A] | < 1e-05 | < 1e-05 | – | – | – |
| AUAAAAGCGCCAUAACUACAGAAAUGUAGUUGACGAGGAGGAGGUUUAUCGUAUUUUCGGCGGAUGCCUGCAAA [G13U A52U C70G] | < 1e-05 | – | – | – | – |
| AUAAAAGCGCCAUAACUACAGAAAUGUAGUUAACGAGGAGGAGGUUUAUUGAAUUUUCGGCGGAUGCCUCCAAA [G13U G32A C50U] | < 1e-05 | – | – | < 1e-05 | < 1e-05 |
| AUAAAAGCGCCAUAACUACAGAAAUGUAGUUGACGAGGAGGAGUUUUAUCCAAUUUUCGGCGGAUGCCUCCAAA [G13U G44U G51C] | < 1e-05 | – | – | – | – |
| AUAAAAGCGCCAGCACUACAGAAAUGUAAUUGACGAGGAGGAGGUUUAUCGAAUUUUCGGGGGAUGCCUCCAAA [A14C G29A C61G] | < 1e-05 | – | – | – | < 1e-05 |
| AUAAAAGCGCCAGCACUACAGAAAUGUAGUUGACGAGGAGGAGGUUUAUGGAAUUUUCGGCGGAUGCAUCCAAA [A14C C50G C68A] | 4.86e-05 ± 1.6e-05 | – | – | – | 0.000123 ± 2.5e-05 |
| AUAAAAGCGCCAUAACUACAGAAAUGUAGUUGACGAGGAGGACGUUUAUCGAAUUUUCGGCGGAUGCCUCCAAA [G13U G43C] | < 1e-05 | < 1e-05 | < 1e-05 | < 1e-05 | < 1e-05 |
| AUAAAAGCGCCAUAACUACAGAAAUGUAGUUGACGAGGAGGAGGUUUAUCGCAUUUUCGGCGGAUGCCUCCAAA [G13U A52C] | < 1e-05 | – | – | < 1e-05 | < 1e-05 |
| AUAAAAGCGCCAUAACUACAGAAAUGUAGUUGACUAGGAGGAGGUUUAUCGAAUUUUCGGCGGAUGCCUCCAAA [G13U G35U] | < 1e-05 | < 1e-05 | < 1e-05 | < 1e-05 | < 1e-05 |
| AUAAAAGCGCCAUAACUACAGAAAUGUAAUUGACGAGGAGGAGUUUUAUCGAAUGUUCGGCGGAUGCCUCCAAA [G13U G29A G44U U55G] | < 1e-05 | – | – | – | < 1e-05 |
| AUAAAAGCGCCAUAACUACAGAAAUGUAGUUGACGAGGAGGAGGUUUAUCGAAUUAUCUGCGGAUGCCUCCAAA [G13U U56A G59U] | < 1e-05 | – | – | – | – |
| AUAAAAGCGCCAGCACUACAGAAAUGUAGUUGAAGAGGAGGAGGUUUAUCGAAUUUUCGGCGGAUGUCUCCAAA [A14C C34A C67U] | < 1e-05 | – | – | < 1e-05 | < 1e-05 |
| AUAAAAGCGCCAGCACUACAGAAAUGUAGUUGACGAGGAGGAGGUUUAUCGAAUUUUCGGCGGAUGCGACCAAA [A14C C68G U69A] | < 1e-05 | – | – | – | – |

| Variant | self-cleavage kobs at 40 uM GlcN6P (glucosamine-6-phosphate [1]) [s⁻¹] | self-cleavage kobs at 160 uM GlcN6P (glucosamine-6-phosphate [2]) [s⁻¹] | self-cleavage kobs at 640 uM GlcN6P (glucosamine-6-phosphate [3]) [s⁻¹] | self-cleavage kobs at 2500 uM GlcN6P (glucosamine-6-phosphate [4]) [s⁻¹] | self-cleavage kobs at 10000 uM GlcN6P (glucosamine-6-phosphate [5]) [s⁻¹] |
| --- | --- | --- | --- | --- | --- |
| AUAAAAGCGCCAGCACUACAGAAAUGUAGUUGACGAGGAGGAGGUUUAUCGAAUUUUCGUCGGAUGCCUCCAAA [A14C G60U] | < 1e-05 | < 1e-05 | < 1e-05 | – | < 1e-05 |
| AUAAAAGCGCCAUAACUACAGAAAUGUAGUUGACGAGAUGGAGGUUUAUCGAAUUUUCGGCGGAUGCCUCCAAA [G13U G38A A39U] | < 1e-05 | – | – | – | – |
| AUAAAAGCGCCAUAACUACAGAAAUGUAGUUGACGAGGAGGAGGUUUAUCGAAUUUUCUGCGGAUGCCUCCAAA [G13U G59U] | < 1e-05 | < 1e-05 | < 1e-05 | – | < 1e-05 |
| AUAAAAGCGCCAGCACUACAGAAAUGUAGUUGAAGAGGAGGAGGUUUAUCGAAUUUUCGGCGGAUGCCUCCAAA [A14C C34A] | < 1e-05 | < 1e-05 | < 1e-05 | – | < 1e-05 |
| AUAAAAGCGCCAUAACUACAGAAAUGUAGUUGACUAGGAGGAGGUUUAUCGAAUUUUCGGCGCUUGCCUCCAAA [G13U G35U G63C A64U] | < 1e-05 | – | – | – | – |
| AUAAAAGCGCCAUAAUUACAGAAAUGUAGUUGACGAGGAGGAGGUUUAUCGAAUUUUCGGCGGAUGCCUUCAAA [G13U C16U C70U] | 5.86e-05 ± 1.3e-05 | – | – | – | 0.00165 ± 0.00029 |
| AUAAAAGCGCCAUAAUUAAAGAAAUGUAGUUGACGAGGAUGAGGUUUAUCGAAUUUUCGGCGGAUGCCUCCAAA [G13U C16U C19A G40U] | < 1e-05 | < 1e-05 | < 1e-05 | – | < 1e-05 |
| AUAAAAGCGCCAGCACUACAGAAAUGUAGUUGACGCGGAGGAGGUUUAUCGAAUUUUCGGGGGAUGCCUCCAAA [A14C A36C C61G] | < 1e-05 | – | – | – | – |
| AUAAAAGCGCCAUAACUACAGAAAUGUAGUUGAAGAGGAGGAGGUUUAACGAAUUUUCGGCGGACGCCUCCAAA [G13U C34A U49A U65C] | < 1e-05 | – | – | – | < 1e-05 |
| AUAAAAGCGCCAUAACUACAGAAAUGUAGUUGACGAGGAGGAGGUUUGUCGAAUUUUCGGCGGACGCCGCCAAA [G13U A48G U65C U69G] | < 1e-05 | – | – | – | – |
| AUAAAAGCGCCAUAACUACAGAAAUGUAGUUGACGAGGAGGAGGGUUAUCGAAUUUUCGGCGGAUGCCUCCAAA [G13U U45G] | < 1e-05 | – | – | 8.28e-05 ± 2e-05 | 0.000133 ± 1.8e-05 |
| AUAAAAGCGCCAGCACUACAGAAAUGUAGUGGACGAGGAGGAGGUUGAUCGAAUUUUCGGCGGAUGCCUCCAAA [A14C U31G U47G] | 0.00012 ± 1.8e-05 | – | – | – | 0.00313 ± 0.00068 |
| AUAAAAGCGCCAGCACUACAGAAAUGUAGUUGACGAGCAGGAGAUUUAUCGAAUUUUCGGCGUAUGCCUGCAAA [A14C G38C G44A G63U C70G] | < 1e-05 | – | – | – | – |
| AUAAAAGCGCCAGCACUACAGAAAUGUAGUUGACGAGGAGGAGGUUUAUCGAAUUUUCCGCGGAUGCCUCCAAA [A14C G59C] | < 1e-05 | < 1e-05 | < 1e-05 | – | < 1e-05 |
| AUAAAAGCGCCAUAACUACAGAAAUGUAGUAGACGAGGCGGAGGUUUAUCGAAUUUUCGGCGGAUGCUACCAAA [G13U U31A A39C C68U U69A] | < 1e-05 | < 1e-05 | < 1e-05 | – | – |
| AUAAAAGCGCCAGGCCUACAGAAAUGUAGUUGACGAGGAGUAGGUUUAUCGAAUUUUUGGCGGAUGCCUCCAAA [A14G A15C G41U C58U] | < 1e-05 | – | – | – | < 1e-05 |
